Test results from PMC8844822, “SARM1 is a multi-functional NAD(P)ase with prominent base exchange activity, all regulated bymultiple physiologically relevant NAD metabolites” (iScience, 2022).

Experiments:
[1] = substrate: NC(=O)c1ccc[n+]([C@@H]2O[C@H](COP(=O)([O-])OP(=O)(O)OC[C@H]3O[C@@H](n4cnc5c(N)ncnc54)[C@H](O)[C@@H]3O)[C@@H](O)[C@H]2O)c1; test: purified protein, by the assay type; format: biochemical; conditions: other: hSARM1 SAM-TIR, pH 7.5
Protocol: (§1) hSARM1 species were routinely assayed by the NAD/NADH-Glo^TM Assay (Promega) while both Aplysia cyclase and CD38 were assayed by fluorometry using ϵNAD ([Orsomando et al., 2000]). […] Other reagents used in addition to, or in place of those above are detailed in text or in figure legends, for example metal ions, free bases, dinucleotide analogues, mononucleotides, and ribosides. Assays were all carried out at 25°C except for temperature studies. Reactions were stopped by HClO4/K2CO3 and analysed by C18-HPLC as reported ([Mori et al., 2014]). Only the acid labile NADH and NADPH were treated with 1 N NaOH and neutralized using 1:1 vol of 1.73 M KH2CO3 while the highly hydrophobic metabolites vacor, VAD, VMN and VR, were analysed by a modified C18-HPLC method ([Buonvicino et al., 2018]). Reaction products were quantified from peak areas (see Figure 2A) based on coelution with standards (except for cyclic products from NAD analogues that were not available and were attributed based on UV-spectra and retention times as predicted). Rates were calculated as follows. Hydrolysis and cyclization were measured from product generation from the respective individual dinucleotide substrate used, e.g., free and cyclic ADP-ribosyl moieties from NAD (Figure 1B). A basal value for hydrolysis/cyclization was taken as sum of these latter two products. In addition to that value, base exchange or transglycosidation was calculated from the expected dinucleotide analog formed in the presence of the corresponding free base, e.g., AcPyrAD from AcPyr and NAD.
(§2) The kinetic parameters were calculated from initial rates obtained from replicates via best-fitting analysis using the following Equation 1 for CD38 and Aplysia cyclase, or Equation 2 for hSARM1 SAM-TIR, or Equation 3 for hSARM1 full length(Equation 1) V =Vmax[S]/Km+[S]

[2] = substrate: NC(=O)c1ccc[n+]([C@@H]2O[C@H](COP(=O)([O-])OP(=O)(O)OC[C@H]3O[C@@H](n4cnc5c(N)ncnc54)[C@H](O)[C@@H]3O)[C@@H](O)[C@H]2O)c1; test: NAD(P)ase activity by HPLC (kinetics, substrates, metal ions); format: biochemical, human; conditions: other: hSARM1 full length
Protocol: as §1, §2

[3] = substrate: NC(=O)c1ccc[n+]([C@@H]2O[C@H](COP(=O)([O-])OP(=O)(O)OC[C@H]3O[C@@H](n4cnc5c(N)ncnc54)[C@H](O)[C@@H]3O)[C@@H](O)[C@H]2O)c1; test: purified protein, by the assay type; conditions: other: Aplysia cyclase, substrate as labelled, pH 7.5
Protocol: hSARM1 species were routinely assayed by the NAD/NADH-Glo^TM Assay (Promega) while both Aplysia cyclase and CD38 were assayed by fluorometry using ϵNAD ([Orsomando et al., 2000]). […] Other reagents used in addition to, or in place of those above are detailed in text or in figure legends, for example metal ions, free bases, dinucleotide analogues, mononucleotides, and ribosides. Assays were all carried out at 25°C except for temperature studies. Reactions were stopped by HClO4/K2CO3 and analysed by C18-HPLC as reported ([Mori et al., 2014]). Only the acid labile NADH and NADPH were treated with 1 N NaOH and neutralized using 1:1 vol of 1.73 M KH2CO3 while the highly hydrophobic metabolites vacor, VAD, VMN and VR, were analysed by a modified C18-HPLC method ([Buonvicino et al., 2018]). Reaction products were quantified from peak areas (see Figure 2A) based on coelution with standards (except for cyclic products from NAD analogues that were not available and were attributed based on UV-spectra and retention times as predicted). Rates were calculated as follows. Hydrolysis and cyclization were measured from product generation from the respective individual dinucleotide substrate used, e.g., free and cyclic ADP-ribosyl moieties from NAD (Figure 1B). A basal value for hydrolysis/cyclization was taken as sum of these latter two products. […]

[4] = re-elaborated from Table 1, pH 7.5

B1: hSARM1 SAM-TIR (Homo sapiens) (protein)
chain: VPSWKEAEVQTWLQQIGFSKYCESFREQQVDGDLLLRLTEEELQTDLGMKSGITRKRFFRELTELKTFANYSTCDRSNLADWLGSLDPRFRQYTYGLVSCGLDRSLLHRVSEQQLLEDCGIHLGVHRARILTAAREMLHSPLPCTGGKPSGDTPDVFISYRRNSGSQLASLLKVHLQLHGFSVFIDVEKLEAGKFEDKLIQSVMGARNFVLVLSPGALDKCMQDHDCKDWVHKEIVTALSCGKNIVPIIDGFEWPEPQVLPEDMQAVLTFNGIKWSHEYQEATIEKIIRFLQGRSSRDSSAGSDTSLEGAAPMGPT
notes: made in house
- Km [1]: 69.5 ± 2.31 µM
- Vmax [1]: 0.723 µmol/min/mg
- kcat [1]: 0.448 ± 0.009 s⁻¹
- kcat/Km [1]: 6500 ± 350 M⁻¹ s⁻¹

B2: human SARM1 full length (Homo sapiens) (protein)
chain: LAVPGPDGGGGTGPWWAAGGRGPREVSPGAGTEVQDALERALPELQQALSALKQAGGARAVGAGLAEVFQLVEEAWLLPAVGREVAQGLCDAIRLDGGLDLLLRLLQAPELETRVQAARLLEQILVAENRDRVARIGLGVILNLAKEREPVELARSVAGILEHMFKHSEETCQRLVAAGGLDAVLYWCRRTDPALLRHCALALGNCALHGGQAVQRRMVEKRAAEWLFPLAFSKEDELLRLHACLAVAVLATNKEVEREVERSGTLALVEPLVASLDPGRFARCLVDASDTSQGRGPDDLQRLVPLLDSNRLEAQCIGAFYLCAEAAIKSLQGKTKVFSDIGAIQSLKRLVSYSTNGTKSALAKRALRLLGEEVPRPILPSVPSWKEAEVQTWLQQIGFSKYCESFREQQVDGDLLLRLTEEELQTDLGMKSGITRKRFFRELTELKTFANYSTCDRSNLADWLGSLDPRFRQYTYGLVSCGLDRSLLHRVSEQQLLEDCGIHLGVHRARILTAAREMLHSPLPCTGGKPSGDTPDVFISYRRNSGSQLASLLKVHLQLHGFSVFIDVEKLEAGKFEDKLIQSVMGARNFVLVLSPGALDKCMQDHDCKDWVHKEIVTALSCGKNIVPIIDGFEWPEPQVLPEDMQAVLTFNGIKWSHEYQEATIEKIIRFLQGRSSRDSSAGSDTSLEGAAPMGPT
notes: Human recombinant SARM1 full length proteins (wild-type and E642A mutant); made in house
- Km ([2]; no NMN, pH 7.5): 30.3 ± 5.18 µM
- Vmax ([2]; no NMN, pH 7.5): 0.0224 µmol/min/mg
- kcat [2, 4]: 0.03 ± 0.007 s⁻¹
- kcat/Km [2, 4]: 1000 ± 350 M⁻¹ s⁻¹

B3: Aplysia californica ADP ribosyl cyclase (Aplysia californica) (protein)
chain: IVPTRELENVFLGRCKDYEITRYLDILPRVRSDCSALWKDFFKAFSFKNPCDLDLGSYKDFFTSAQQQLPKNKVMFWSGVYDEAHDYANTGRKYITLEDTLPGYMLNSLVWCGQRANPGFNEKVCPDFKTCPVQARESFWGMASSSYAHSAEGEVTYMVDGSNPKVPAYRPDSFFGKYELPNLTNKVTRVKVIVLHRLGEKIIEKCGAGSLLDLEKLVKAKHFAFDCVENPRAVLFLLCSDNPNARECRLAKRFYRIA
- Km [3]: 212 ± 13.7 µM
- Vmax [3]: 51.4 ± 1.24 µmol/min/mg
